Experimental data published in the DeepSol protein solubility set.

assay: soluble on expression in E. coli; label from the status in PepcDB or PDB records

Row | Sequence | soluble on expression in E. coli
1 | MSLRTLVAGVDTSTQSCKVRVTDAETGELVRFGQAKHPNGTSVDPSYWWSAFQEAAEQAGGLDDVSALAVGGQQHGMVILDNQGNVIRDAMLWNDTSSAPQAAALIEKLGAAPAQDGEPEDPIARGKQRWVKAVGSSPVASYTLTKVAWVAENEPENVKKIAAICLPHDWLSWRIAGYGPVAEGEDAHLEALFTDRSDASGTIYYDAASNEYRRDLIAMVLEAAEGAKAAQSHAEAIVLPTVLGPRDAAPVKADPAIAGKNVEGGCLLAPGGGDNAMASLGLGMAVGDVSISLGTSGVAAAISENPTYDLTGAVSGFADCTGHYLPLACTINGSRILDAGRAALGVDYDELAKLAFASKPGANGITLVPYFDGERTPNRPNATATFSGMTLANTTRENLARAFVEGLLCSQRDCLELIRSLGASITRILLIGGGAKSEAIRTLAPSILGMDVTRPATDEYVAIGAARQAAWVLSGETEPPAWQLTIDGVETGEPTEAVYEAYAKARGEGHHHHHH | soluble
2 | MSLRVFLTGATGFVGSHVLKELLAAGHQVTGLTRSDAGGRWLVQAGASVHRGTLEDAGSLARGAEQADAVIHTAFDHVFSRYLENCAKDARVISAMAEVLKGSNRPLIITSATGIGAPGAGLPAVEEVVDWAHALPRIASERAGREAADKGVSVAVVRLPQVHDTEKQGLISPLIDIGRAKGVSAYVGDGSNHWSAVHIDDAARLYRLALEHHEAGARYHAVAEEGVSMRQIAETIGAGLGVPVLALQADEVVGHFGWLAPFMAMDMRASSAATRRRLNWTPTGPDLLTDLKAMDYRKLRTASEGHHHHHH | soluble
3 | MSLRVLIVENEIYLAQSIAAKLSDFGFECEIVSLVNEALREQEYDVVLLSTNVSGQNYYPIIEKHKDSIIILMISYVSDDTVSKPLKAGAKDYILKPFMIDELIRKIEHYRTFQKLKKEVQFYRRYLDFALSDFPSSLNQKLTTPFVIKSSTQKSADAYAIAYAKHKDIPLDFLSIKEGFHWRDKLKRALPCREIKYIVGLEELKKSERKELLEIVAKSCVILSFVSSEEGHHHHHH | not soluble
4 | MSLRVRIAVIGKLDGFIKEGIKHYEKFLRRFCKPEVLEIKRVHRGSIEEIVRKETEDLTNRILPGSFVMVMDKRGEEVSSEEFADFLKDLEMKGKDITILIGGPYGLNEEIFAKAHRVFSLSKMTFTHGMTVLIVLEQIFRAFKIIHGENYHYEGGSHHHHHH | soluble
5 | MSLSAKSSLKEVAELAGVGYATASRALSGKGYVSPQTREKVQAAAKELNYVPNQLAKALREHRSALVGVIVPDLSNEYYSESLQTIQQDLKAAGYQMLVAEANSVQAQDVVMESLISIQAAGIIHVPVVGSIAPEGIPMVQLTRGELGPGFPRVLCDDEAGFFQLTESVLGGSGMNIAALVGEESLSTTQERMRGISHAASIYGAEVTFHFGHYSVESGEEMAQVVFNNGLPDALIVASPRLMAGVMRAFTRLNVRVPHDVVIGGYDDPEWYSFVGAGITTFVPPHEEMGKEAVRLLVDLIENPELPTGDVVLQGQVILRGSSTHEGHHHHHH | soluble
6 | MSLSDLITLAQLSQGYRYNSDSLILADFILKQGIKGAVFDVGAGCGIIGILLKKNIANLSLSLIDIQKENIELIEKNLKSNKIQGDIFHDDFNQFQIIKKFDFIVCNPPFYRQGAYKSEDQHKAISKFQEFLPLHSFLAKTNSMLKPNGTLYFCYEALALDEICFILKDMKMKITKLCFVHTHQSKKARLVLIQVKKGSKSPCEILPPFFVYENEILSKQMQEIHLRFRLKSYDEGHHHHHH | soluble
7 | MSLSDLSAFAVTQKWPAQFPEWIQLYSLPTPNGVKVSVMLEEIGLPYEAHRVSFETQDQMTPEFLSVSPNNKIPAILDPHGPGDQPLALFESGAILIYLADKSGQLLAQESAARYETIQWLMFQMGGIGPMFGQVGFFNKFAGREYEDKRPLERYVNEAKRLLGVLDKHLGGREWIMGERYTIADIATFPWIRNLIGFYEAGELVGIDNFPEVKRVLAKFVARPAVIRGLEIPKVSEGHHHHHH | soluble
8 | MSLSDPTNNKPAPVLRESATFDRLTIQEIQRAAETGIYDIRGGGTKRKLPHFDDLLLLGASVSRYPLEGYREKCGTDVVLGNRFAKKPLYLKIPVTIAGMSFGALSANAKEALGRGATIAGTSTTTGDGGMTPEERGQSQHLVYQYLPSRYGMNPDDLRKADAIEIVLGQGAKPGGGGMLLGMKVTERVAGMRTLPVGVDQRSACRHPDWTGPDDLAIKIAEIREITDWEKPIYVKIGASRPYYDVKLAVKAGADVIVLDGMQGGTAATQEVFIEHVGIPILPAIPQAVQALQEMGMHRKVQLIVSGGIRNGADVAKAMALGADAVAIGTAALIALGDNHPRLDEELKKIGSAAGFYDDWQNGRDPAGITTQDPELSKRLDPVEGGRRLANYLRVLVLEAQTMARACGKSHLHNLDPEDLVALTVESAAMARVPLAGTSWIPGSGSKGIITITTDPNSSSVDKLAAALEHHHHHH | soluble
9 | MSLSDRVKKIESFTLTLPRETPYLGKPRPGEEPNGRGYLVRKANRTVYPTFDRSVLVRIETENGAVGWGETYGLVAPRATMEIIDDLLADFTIGRDPFDAAAIHDDLYDLMRVRGYTGGFYVDALAAIDIALWDLAGKLAGLPVCKLLGGQRRDRIAAYISGLPEDTRAKRAELAAAWQAKGFSSFKFASPVADDGVAKEMEILRERLGPAVRIACDMHWAHTASEAVALIKAMEPHGLWFAEAPVRTEDIDGLARVAASVSTAIAVGEEWRTVHDMVPRVARRALAIVQPEMGHKGITQFMRIGAYAHVHHIKVIPHATIGAGIFLAASLQASAALANVDCHEFQHSIFEPNRRLLVGDMDCLNGEYVVPTGPGLGVEPSKEAQGLLKKHEGHHHHHH | soluble
10 | MSLSDSQTLVVKLGTSVLTGGSRRLNRAHIVELVRQCAQLHAAGHRIVIVTSGAIAAGREHLGYPELPATIASKQLLAAVGQSRLIQLWEQLFSIYGIHVGQMLLTRADMEDRERFLNARDTLRALLDNNIVPVINENDAVATAAIKVGDNDNLSALAAILAGADKLLLLTDQKGLYTADPRSNPQAELIKDVYGIDDALRAIAGDSVSGLGTGGMSTKLQAADVACRAGIDTIIAAGSKPGVIGDVMEGISVGTLFHAQATPLENRKRWIFGAPPAGEITVDEGATAAILERGSSLLPKGIKSVTGNFSRGEVIRICNLEGRDIAHGVSRYNSDALRRIAGHHSQEIDAILGYEYGPVAVHRDDMITREGHHHHHH | soluble
11 | MSLSDTEKKIADTKGQFLQAVSQGQRLTDAEWRNCRIVLTTERVALLGDDKRQISLTDIDRIADRFDVNQQSAGVSDYVALYVGEDVILVSASDHGTFETDFYRASLDGAIVLVQHPALKGGVVQSAEWTKGRLKVTDEALKLAMADGQAVVIDRADIGDLAVEEKQVSGEERTVIQVEHSEEDISVETHLAGEEFHATVLRTMLEESAEQNQADLDLSSTEKRVIMALHSGVSPFDIPNFVGIDVEKTEEIFDRLIELDVISVLRERTEVNLTTKGRRVAGERMGEQEGHHHHHH | not soluble
12 | MSLSETASWQPSASIPNLLKRAAIMAEIRRFFADRGVLEVETPCMSQATVTDIHLVPFETRFVGPGHSQGMNLWLMTSPEYHMKRLLVAGCGPVFQLCRSFRNEEMGRYHNPEFTMLEWYRPHYDMYRLMNEVDDLLQQVLDCPAAESLSYQQAFLRYLEIDPLSADKTQLREVAAKLDLSNVADTEEDRDTLLQLLFTFGVEPNIGKEKPTFVYHFPASQASLAQISTEDHRVAERFEVYYKGIELANGFHELTDAREQQQRFEQDNRKRAARGLPQHPIDQNLIEALKVGMPDCSGVALGVDRLVMLALGAETLAEVIAFSVDRAEGHHHHHH | soluble
13 | MSLSFSMKIKNIPYYVATRVVKRIQSWLGLNTLGARAIVTNAEGHVLLVKHTYQPHWYLPGGGVKKGESTKAAVIRELHEEVGLVVAEQDVILFGIYHHKYLGVNDYPVIYIVKNFTSHVTHSGEIEQIGWFSLDALPEMVSPGTKRRLGEYFDNNPISEGHHHHHH | not soluble
14 | MSLSFYERYLEYKNFDFENFFDQVTDRDIINIINKDRRLSELEFLMLLSKKAVKYLEPLAQKANRITVQNFGKVIFLYTPMYLANYCVNQCIYCGFNITNNIKRRKLTLDEVEKEAYAISSTGLRHILILTGESRKESPVQYIKDCVKILQKYFRSISIEVYPLEENEYAELIEAGVDGLTIYQEVYDEEKYKALHLKGPKRNYLYRLDAPERACKASMRNVNIGALLGLHDWRTEAFYTGLHADYLQNKYPDVEIGLSLPRIRPHPCGSFVPDCKVEDRDLVQIMIAYRLFMPRAGIAISTRERESLRNNLIGLGVTKMSAASSTEVGGHTLGDKSDGQFDVNDRRGVEEMRQMIYSKGYQPVFKDWQAEGHHHHHH | soluble
15 | MSLSGDLVSLKVVVFDIGNVLLRWDPRLLYRKIFSEENQMEWFLSQVCSEAFNRKLDGGAPFAAAIEALVAQFPDFSKEIRAYDERWLETTSGPIPETFAILEELVAEGVPLYAITNFSYEKFEVARCAFELFDRFDGIVVSGAEGVVKPEAPIYRLLLDRYGLDASDCLFIDDSAANVDGARAVGMQGYHYRDPISLRWKLTECGLLCRKSDLNDKGQVLEKREGHHHHHH | soluble
16 | MSLSGKENPNICFLPTATGDADEVIERFYNAKLSENVTHFPLFKFDAGWKETLFEQDIIYVGGGNTRSMLAIWREWGIDRILKQCYEQGIIICGMSAGAICWFEFAVTDSDPEAYQVMRCLGLIDGLAAAHFSHVGEKFEVFQAFARSQPSITCYGIHDYAALHFVDGKLLATVTSFPDAGVLVKTGNDENILRGEGHHHHHH | not soluble
17 | MSLSGRAGRHERTGEVIVQSYNPEHYSIEFAKKHDFIGFYNHEMQLRKMGSYPPFYYLTMINVSDENEMKAIRTIQEMAQFLRGKLGPDAVILGPVPSTITRIKNKYRYQCIIKYKIEPNLKKELKTLITHYQKDQQKGLTITIDVQPYVLMEGHHHHHH | soluble
18 | MSLSHSEKDVHEMGRFLLSTIKGSILELAFSHGEVEGLSFEKKVTILEIEDLDLPTDRHDELDENQRLSVTLMFALGTFCSKFGSRNRKEETVTFFDEAWIFQSSPEGQKILKSMKRIGRSFNNFMVLITQSVNDVLDNGDGTGFGTVVCFDEVDNREGILRYLKLPVNEINLKWVSNMIQGQCLMKDMFNQVNRIVIDVIFEEWLELFETVDEGHHHHHH | not soluble
19 | MSLSILNSLKNIAFIGFYFIFAVNKMSRADEGRLIHLAKKREREKEDIEQQLRKLEEDKEKCRVGITNKFMANYETVEEVVKSKTYGLVSLDDMKNIQKNEISNRDLQVARGDQSSSTQSKDSQEAREKEEHVAKHTQKRFLSFAFDDEEDEEDAAPIIPKKRVGMDPTVDTSFLPDKEREEFLRKKKESLAAEWRVKQDAEKNEEITVAYAYWDGSSHRKNMKIKKGNTISQCLGRAIEALKKEFTELKSCTAENLMFVKEDLIIPHFYTFQDFIVTKAMGKTGPLFVFDSASDVRIRQDAALDYGESHPAKIVLRSWYEKNKHIYPASRWEPFVPSKKYGRNFDDLSDL | not soluble
20 | MSLSITFFVTGDNHLGYYEKNLTLKDDCYKLFEQYLKEATQKEGSILLQCGDLFNDLRPNKSCVSKTANLIKKYCIGDADIPYTIKDEAELSYPLNITDPYINVKHPLFTIHGTNDEPSGYKLIAGSEILASCGLVNYISPKSFEEEKMLKPVIIVNEHTKIALYGLSVLYSSDLDEIVEDETFHIKKPNGNDWICILLLYIGKGTISQTTKDIIEKHFNIIILGGQHSCNIPTGDFNGSVIIQPGSPFFLSFDEYDEIKKGFVKIVVEGQKIYIEKKEYKPIHRMIKKEVYIPETLRDCVISKRIEDFIQQEMKKCITEAVIKENEQILLKLIVKDCNQDCYPDTKKISSLLEEDVVNFIDCIKVKKEGHHHHHH | not soluble
21 | MSLSKASLQEMAVKYIAEQIGEHDSEQIHLSALPLDSRIPDRACSTTPDIISSSEPPFNRQITIQVKCDDPQSWAQYVHIKVLKMAPVVVTTDNIARGEVITSAHITVEMKPTHFVRVQYQDDPKALIGSRSKRNIREGMPILLNQICMVCKGDAINIYASTKGLQIKTTGVALEDGTLGEQILVENKKTGKVLNARVDGVESVQVNIEGHHHHHH | not soluble
